{"source": "patent US20220218748", "proteins": {"B1": {"name": "membrane-bound IdeS (IdeS-tm) (protein)", "chain 1": "DSFSANQEIRYSEVTPYHVTSVWTKGVTPPAKFTQGEDVFHAPYVANQGWYDITKTFNGKDDLLCGAATAGNMLHWWFDQNKEKIEAYLKKHPDKQKIMFGDQELLDVRKVINTKGDQTNSELFNYFRDKAFPGLSARRIGVMPDLVLDMFINGYYLNVYKTQTTDVNRTYQEKDRRGGIFDAVFTRGDQSKLLTSRHDFKEKNLKEISDLIKKELTEGKALGLSHTYANVRINHVINLWGADFDSNGNLKAIYVTDSDSNASIGMKKYFVGVNSAGKVAISAKEIKEDNIGAQVLGLFTLSTGQDSWNQTN", "chain 2": "not shown"}, "B2": {"name": "secreted IdeS (IdeS-sec) (protein)", "chain": "B1 chain 1"}}, "target": "human polyclonal IgG"}
{"protein": "B1", "values": [{"measurement": "cleavage of IgG, SDS-PAGE with Coomassie stain and anti-human Fc blot", "value": "Cleaved Ig appeared within 5 min and increased over time"}]}
{"protein": "B2", "values": [{"measurement": "cleavage ELISA", "value": "IdeS-sec efficiently cleaved human polyclonal IgG at different time points"}]}
